Test results as given in publication PMC3272265.

Tests used:
[1] = displacement of Hoechst-labelled sperm by Acr3-EGFP sperm; conditions: glycan lost; control: normal eggs
[2] = EGFP acrosome status and Alexa 568-SBTI staining; conditions: glycan lost; control: normal eggs
[3] = mating with proven fertile normal males; conditions: glycan lost; control: co-caged transgenic control females
[4] = two-cell embryos after overnight incubation; conditions: glycan lost; control: normal eggs

B1: ZP3: Zp3Mut (protein)
parent chain: MASSYFLFLCLLLCGGPELCNSQTLWLLPGGTPTPVGSSSPVKVECLEAELVVTVSRDLFGTGKLVQPGDLTLGSEGCQPRVSVDTDVVRFNAQLHECSSRVQMTKDALVYSTFLLHDPRPVSGLSILRTNRVEVPIECRYPRQGNVSSHPIQPTWVPFRATVSSEEKLAFSLRLMEENWNTEKSAPTFHLGEVAHLQAEVQTGSHLPLQLFVDHCVATPSPLPDPNSSPYHFIVDFHGCLVDGLSESFSAFQVPRPRPETLQFTVDVFHFANSSRNTLYITCHLKVAPANQIPDKLNKACSFNKTSQSWLPVEGDADICDCCSHGNCSNSSSSQFQIHGPRQWSKLVSRNRRHVTDEADVTVGPLIFLGKANDQTVEGWTASAQTSVALGLGLATVAFLTLAAIVLAVTRKCHSSSYLVSLPQ
no change: other: reversibility of sperm binding [1] | other: induction of sperm acrosome exocytosis [2] | other: in vivo fertility (litter size) [3] | other: in vitro fertilisation rate [4]
